The target of the assay is Histone H4 N-terminal peptide, biotinylated (1–23) (UniProt P62805 2-24, biotin (position not given)). As to the kind of experiment: pull-down.

Turning to SATICRVCQKPGDLVMCNQCEFCFHLDCHLPALQDVPGEEWSCSLCHVLP (domain or fragment, UniProt Q13263 624-673, looked up) [GST-tagged KAP1 PHD (residues 624–673)], the binding result is listed as “binds”.

Source of the values: publication PMC7305985 (Molecular cell, 2020).
